These results are taken from the DeepSol protein solubility set.

A short description of the series: soluble on expression in E. coli; label from the status in PepcDB or PDB records.
Consider “MTSPVPRLIEQFERGLDAPICLTWELTYACNLACVHCLSSSGKRDPGELSTRQCKDIIDELERMQVFYVNIGGGEPTVRPDFWELVDYATAHHVGVKFSTNGVRITPEVATRLAATDYVDVQISLDGATAEVNDAIRGTGSFDMAVRALQNLAAAGFAGVKISVVITRRNVAQLDEFATLASRYGATLRITRLRPSGRGTDVWADLHPTADQQVQLYDWLVSKGERVLTGDSFFHLAPLGQSGALAGLNMCGAGRVVCLIDPVGDVYACPFAIHDHFLAGNVLSDGGFQNVWKNSSLFRELREPQSAGACGSCGHYDSCRGGCMAAKFFTGLPLDGPDPECVQGHSEPALARERHLPRPRADHSRGRRVSKPVPLTLSMRPPKRPCNESPV”, for which the “soluble on expression in E. coli” value is “not soluble”.
In the case of “MADKLFSIRNYFFLGSYQSCIGEALKFSSKNEEEKQEKDVYLYRSYIAQGQAFIPLKEIPAATKSADLAAVRRYAEFRNNPAAKKKILAEVQEEVASRNIKSEIAAVLAATILNEADLSQDAFRAVSRFEGLEARASKVFILIKMNKRKLAIGEVKKMNQIDEDATLSQLANALVTSFGASGKVKDALYIYSEMSDKYGRTTDLEMHQAVVSILTQDYAAAEELLESALERDNKDADVLINSIVSAQLNEKDDDVVERFISQLKHEHPNHPWVIDFNEKEAEFDRVASDSRA”, the “soluble on expression in E. coli” value is given as “not soluble”.
Next, “MRTLKELERELQPRQHLWYFEYYTGNNVGLFMKMNRVIYSGQSDIQRIDIFENPDLGVVFALDGITMTTEKDEFMYHEMLAHVPMFLHPNPKKVLIIGGGDGGTLREVLKHDSVEKAILCEVDGLVIEAARKYLKQTSCGFDDPRAEIVIANGAEYVRKFKNEFDVIIIDSTDPTAGQGGHLFTEEFYQACYDALKEDGVFSAETEDPFYDIGWFKLAYRRISKVFPITRVYLGFMTTYPSGMWSYTFASKGIDPIKDFDPEKVRKFNKELKYYNEEVHVASFALPNFVKKELGLM”: “soluble”; “MFQNLLENSKKFWIVLEPYGKFKKMLLRDLRGETHRGETRRGETRRGETHRGETHRGETHRGETHRGETHRGETHRGETYRGETHRGETHRGETHRGKTQNFGGKFKFSVKNILAGNLNFLKKIFWREI”: “not soluble”; “MNSYPLISVIMSVYKEEREWLVSSIQSILDQTVSDFEFIIILDFPNSELLKTLKDFEKKDSRIIIYQNEKNVGLVESLNTALSFSRGKYIARMDADDISHKNRFEKQLKYITLNNLDLVGGNVNIFHSNKGIYNTTDKVQSDYFLCKLLKIGTIGIVHPTFFSKRNVYDTIGGYYHAECAEDLELLMRANLNGFKIGNIPDVILDCRYSEKSITKENAYFMFCTVKYLKSLYRSSLKSGDYKFNSNYIELYLYDENNKLAFSEKQNLMSEARHSFNEKKYISFLINLIKSILISRTVFFSIKVNVMSFLFRKVEVKIPKVLLACIKIKLQLEHHHHHH”: “soluble”.
Next, “MTTPTFDINAAIQALREGKDLTGKDGILTPLIKQLTEAALAAELDGHLASTEGANRKNGKTTKTVKSPLGNFELNTPRDRAGTFEPQLVKKHQTQLTDEMERKIIGLFSLGSSYQDIRAHIEDMYGMSVSNGTVNAITDKLLPELQAWRERELEPLYPVIWLDAIHYKIKENGRFISKAVYTILALNVEGKKELLGLYLSDNEGAHHWLSVLTDLYNRGVKDILIACVDGLKGFPEAIATIYPQTEVQLCVIHQIRNSMKYVASKHQKAFMADLKCVYKAATLNAAEMALDELETKWGDKYPVVIKSWRNKWALLSVYFKYPDYVRTAIYTTNAVEAVHRQFRKLTKTKGGFANENSLLKLLYAGILKASERWTHPIQNWNLTLSQLSIHFEGRLENHIDL”: “not soluble”; “MYVMTQSGWLELICGCMFSGKSEELIRRVRRAQFAKQEVKVFKPTIDNRYSEDAVVSHNGNSVIAIPVATPAEMFRYISAATDVVAIDEIQFFSDDIIDVVQTLADCGYRVIAAGLDQDFRGEPFGPVPALMAIAESVTKLQAVCTVCGSPASRTQRLINGAPASYDDPVILVGASEAYEPRCRHHHEVPGKPKKRYNHPLAGHTGE”: “soluble”; “MLIFRTSPMSRREKSLPIEPKYTKPQANGSSFPPIFTLEGSTPCKKTARKLIDPVVNSVDSLCYLARKIVKMQEEKKRQKSNSFLIDYLVGDNFITEFREQPAQASPAVDVEDPMVSLVLGCPFGAIGQERRMSQDFPFQRRSFDMVSNRTSTSESSSCSSTDNTYKNAGKFLSLQEYLEQNNLLPPSTMPFGENSGFHGYNPQMNVHNNSTRNGNVENREQRNNSTSPPRGNPPHPLCCCFCFGTASEFARLHTLPAPRKDDRGPWSDHCSKKRGRVVCPKLRSMVCGICGATGDNAHTTKHHLEAFGDD”: “not soluble”.
